# B1: PFTR: P. fluorescens polypeptide of 198 amino acids (SEQ ID NO: 5), similar to bacterial ferrodoxins (protein)
# chain: MRTMVDSGQLTDPESARGKLLQTAAHLFRNKGFERTTVRDLASAVGIQSGSIFHHFKSKDEILRAVMEETTHYNTAMMRASLEEASTVRERVLALIRCKLQSIMGGSGEAMAVLVYEWRSLSAEGQAHVLALRDVYEQIWLQVLGEAKAAGYIRGDVFITRRFLTGALSWTTTWFRAQGSLTLEELAEEALLMVLKSD
# modifications: P. fluorescens
# System: CD4+ T cells from C57BL/6J mice
# Type: cell-based, mouse
# Settings: 72 hours
molecule,measurement,value
B1,stimulation of CD4+ T cell proliferation,strongly stimulated

# — US6821739B2, “Methods of diagnosing and treating Crohn's disease using Pseudomonas antigens” (The Regents of the University of California, priority 2000, dated 2004)
